This is an account of results in the RNAGym collection of RNA variant scans (doi:10.7554/elife.80360).

B1: HDV Ribozyme (parent)
chain: GGCCGGCAUGGUCCCAGCCUCCUCGCUGGCGCCGGCUGGGCAACAUUCCGAGGGGACCGUCCCCUCGGUAAUGGCGAAUGGGACCCA

Variants of B1 are the subject of the data set. As to the kind of experiment: self-cleavage, relative activity (ratio to wild type); higher = more cleavage; co-transcriptional.
As to GGCCGGCAUGGUCCCAGUCUCCUCGCUGGCGCCGGCUGGGCAACAUUCCGAGGGGACCGUCCCCUCGGUAAUGGCGAAUGGGACGCA [C18U C85G], the self-cleavage stood at 0.975.

Turning to GGCCGGCAUGGUCCCAGUCUCCACGCUGGCGCCGGCUGGGCAACAUUCCGAGGGGACCGUCCCCUCGGUAAUGGCGAAUGGGACCCA [C18U U23A], the self-cleavage was found to be 0.519.

Take GGCCGGCAUGGUCCCAGUCUCCCCGCUGGCGCCGGCUGGGCAACAUUCCGAGGGGACCGUCCCCUCGGUAAUGGCGAAUGGGACCCA [C18U U23C]: the self-cleavage amounted to 0.415.

As to GGCCGGCAUGGUCCCAGUCUCCUCGCUGGCGCCGGCUGGGCAACAUUCCGAGGGGACCGUCCCCUCCGUAAUGGCGAAUGGGACCCA [C18U G67C], the self-cleavage is 0.436.

As to GGCCGGCAUGGUCCCAGUCUCCUCGCUGGCGCCGGCUGGGCAACAUUCCGAGGGGACCGUCCCCUCAGUAAUGGCGAAUGGGACCCA [C18U G67A], the self-cleavage was 0.468.

Take GGCCGGCAUGGUCCCAGUCUCCUCGCUGGCGCCGGCUGGGCAACAUUCCGAGGGGACCGUCCCCUCUGUAAUGGCGAAUGGGACCCA [C18U G67U]: the self-cleavage was determined as 0.665.

Turning to GGCCGGCAUGGUCCCAGUCUCCUCGCUGGCGCCGGCUGGGCAACAUUCCGAGGGGACCAUCCCCUCGGUAAUGGCGAAUGGGACCCA [C18U G59A], the self-cleavage turned out to be 0.896.

As to GGCCGGCAUGGUCCCAGUCUCCUCGCUGGCGCCGGCUGGGCAACAUUCCGAGGGGACCUUCCCCUCGGUAAUGGCGAAUGGGACCCA [C18U G59U], the self-cleavage stood at 0.67.

As to GGCCGGCAUGGUCCCAGUCUCCUCGCUGGCGCCGGCUGGGCAACAUUCCGAGGGGACCGACCCCUCGGUAAUGGCGAAUGGGACCCA [C18U U60A], the self-cleavage was 0.852.

Consider GGCCGGCAUGGUCCCAGUCUCCUCGCUGGCGCCGGCUGGGCAACAUUCCGAGGGGACCGGCCCCUCGGUAAUGGCGAAUGGGACCCA [C18U U60G], for which the self-cleavage worked out at 0.633.

On to GGCCGGCAUGGUCCCAGUCUCCUCGCUGGCGCCGGCUGGGCAACAUUCCGAGGGGACCGUCCCCUCGGUAAUGGCGAAUCGGACCCA [C18U G80C], for which the self-cleavage is 0.102.

With GGCCGGCAUGGUCCCAGUCUCCUCGCUGGCGCCGGCUGGGCAACAUUCCGAGGGGACCGUCCCCUCGGUAAUGGCGAAUAGGACCCA [C18U G80A], the self-cleavage was determined as 0.196.

For GGCCGGCAUGGUCCCAGUCUCCUCGCUGGCGCCGGCUGGGCAACAGUCCGAGGGGACCGUCCCCUCGGUAAUGGCGAAUGGGACCCA [C18U U46G], the self-cleavage was found to be 0.277.

Regarding GGCCGGCAUGGUCCCAGUCUCCUCGCGGGCGCCGGCUGGGCAACAUUCCGAGGGGACCGUCCCCUCGGUAAUGGCGAAUGGGACCCA [C18U U27G], the self-cleavage is 0.391.

As to GGCCGGCAUGGUCCCAGUCUCCUCGCUGGCGCCGGCUGGGCAACAUUCCGAGGGGACCGUCCCCUCGGUAAUGGCGAAUGUGACCCA [C18U G81U], the self-cleavage came to 0.281.

In the case of GGCCGGCAUGGUCCCAGUCUCCUCGCUGGCGCCGGCUGGACAACAUUCCGAGGGGACCGUCCCCUCGGUAAUGGCGAAUGGGACCCA [C18U G40A], the self-cleavage came out at 0.691.

In the case of GGCCGGCAUGGUCCCAGUCUCCUCGCUGGCGCCGGCUGGCCAACAUUCCGAGGGGACCGUCCCCUCGGUAAUGGCGAAUGGGACCCA [C18U G40C], the self-cleavage came to 0.281.

In the case of GGCCGGCAUGGUCCCAGUCUCCUCGCUGGCGCCGGCUGGGCAACAUUCCGAGGGGACCGUCCCCUCGGUAAUGGCUAAUGGGACCCA [C18U G76U], the self-cleavage was 1.05.

With GGCCGGCAUGGUCCCAGUCUCCUCGCUGGCGCCGGCUGGGCAACAUUCCGAGGGGACCGUCCCCUCGUUAAUGGCGAAUGGGACCCA [C18U G68U], the self-cleavage was 0.635.

In the case of GGCCGGCAUGGUCCCAGUCUCCUCGCUGGCGCCGGCUGGGCAACAUUCCGAGGGGACCGUCCCCUCGCUAAUGGCGAAUGGGACCCA [C18U G68C], the self-cleavage stood at 0.544.

Consider GGCCGGCAUGGUCCCAGUCUCCUCGCUGGCACCGGCUGGGCAACAUUCCGAGGGGACCGUCCCCUCGGUAAUGGCGAAUGGGACCCA [C18U G31A], for which the self-cleavage worked out at 0.0702.

For the variant GGCCGGCAUGGUCCCAGUCUCCUCGCUGCCGCCGGCUGGGCAACAUUCCGAGGGGACCGUCCCCUCGGUAAUGGCGAAUGGGACCCA [C18U G29C], the self-cleavage came to 0.196.

Take GGCCGGCAUGGUCCCAGUCGCCUCGCUGGCGCCGGCUGGGCAACAUUCCGAGGGGACCGUCCCCUCGGUAAUGGCGAAUGGGACCCA [C18U U20G]: the self-cleavage was found to be 0.277.

With GGCCGGCAUGGUCCCAGUCACCUCGCUGGCGCCGGCUGGGCAACAUUCCGAGGGGACCGUCCCCUCGGUAAUGGCGAAUGGGACCCA [C18U U20A], the self-cleavage was 0.0339.

On to GGCCGGCAUGGUCCCAGUCUCCUCGCUGGCGCCGGCUAGGCAACAUUCCGAGGGGACCGUCCCCUCGGUAAUGGCGAAUGGGACCCA [C18U G38A], for which the self-cleavage was found to be 0.176.

Turning to GGCCGGCAUGGUCCCAGUCUCCUCGCUGGCGCCGGCUGGGCAACAUUCCGAGGGGACCGUCCCCCCGGUAAUGGCGAAUGGGACCCA [C18U U65C], the self-cleavage was found to be 0.831.

For the variant GGCCGGCAUGGUCCCAGUCUCCUCGCUGGCGCCGGCUGGGCAACAUUCCGAGGUGACCGUCCCCUCGGUAAUGGCGAAUGGGACCCA [C18U G54U], the self-cleavage came to 0.661.

As to GGCCGGCAUGGUCCCAGUCUCCUCGCUGGCGCCCGCUGGGCAACAUUCCGAGGGGACCGUCCCCUCGGUAAUGGCGAAUGGGACCCA [C18U G34C], the self-cleavage stood at 0.155.

Turning to GGCCGGCAUGGUCCCAGUCUCCUCGCUGGCGCCAGCUGGGCAACAUUCCGAGGGGACCGUCCCCUCGGUAAUGGCGAAUGGGACCCA [C18U G34A], the self-cleavage was 0.117.

For the variant GGCCGGCAUGGUCCCAGUCUCCUCGCUGGCGCCUGCUGGGCAACAUUCCGAGGGGACCGUCCCCUCGGUAAUGGCGAAUGGGACCCA [C18U G34U], the self-cleavage was 0.0455.

As to GGCCGGCAUGGUCCCAGUCUCCUCGCUGGCGCCGGCUGGGCAACAUUCCGAGGGGACCGUCCCCUCGGUAAUUGCGAAUGGGACCCA [C18U G73U], the self-cleavage came out at 0.111.

With GGCCGGCAUGGUCCCAGUCUCCUCGCUGGCGCCGGCUGGGCAACAUUCCGAGGGGACCGUCCCCUCGGUAAUGGCGAAUGGAACCCA [C18U G82A], the self-cleavage came out at 0.194.
